Assay results as given in patent US20040166544A1.
pIC50, pKd: −log10 of the molar value. Blank lines part the entries; values can stand above or below the substance they belong to.

Key:
[1] = biological target: c-Met (endogenous, on human cell lines 184B5, HCT-116, DU-145 and NCI H441) (human) (UniProt P08581); test: cell-based or functional assay
[2] = biological target: biotinylated c-Met-Fc (R&D Systems, #358-MT-100/CF, 5.1 biotin per c-Met molecule) (human) (UniProt P08581); test: SPR (BIAcore), biotinylated c-Met-Fc captured on streptavidin chip, IgG as analyte, bivalent model
biotinylated c-Met-Fc (R&D Systems, #358-MT-100/CF, 5.1 biotin per c-Met molecule) (human), sequence (P08581 25-932): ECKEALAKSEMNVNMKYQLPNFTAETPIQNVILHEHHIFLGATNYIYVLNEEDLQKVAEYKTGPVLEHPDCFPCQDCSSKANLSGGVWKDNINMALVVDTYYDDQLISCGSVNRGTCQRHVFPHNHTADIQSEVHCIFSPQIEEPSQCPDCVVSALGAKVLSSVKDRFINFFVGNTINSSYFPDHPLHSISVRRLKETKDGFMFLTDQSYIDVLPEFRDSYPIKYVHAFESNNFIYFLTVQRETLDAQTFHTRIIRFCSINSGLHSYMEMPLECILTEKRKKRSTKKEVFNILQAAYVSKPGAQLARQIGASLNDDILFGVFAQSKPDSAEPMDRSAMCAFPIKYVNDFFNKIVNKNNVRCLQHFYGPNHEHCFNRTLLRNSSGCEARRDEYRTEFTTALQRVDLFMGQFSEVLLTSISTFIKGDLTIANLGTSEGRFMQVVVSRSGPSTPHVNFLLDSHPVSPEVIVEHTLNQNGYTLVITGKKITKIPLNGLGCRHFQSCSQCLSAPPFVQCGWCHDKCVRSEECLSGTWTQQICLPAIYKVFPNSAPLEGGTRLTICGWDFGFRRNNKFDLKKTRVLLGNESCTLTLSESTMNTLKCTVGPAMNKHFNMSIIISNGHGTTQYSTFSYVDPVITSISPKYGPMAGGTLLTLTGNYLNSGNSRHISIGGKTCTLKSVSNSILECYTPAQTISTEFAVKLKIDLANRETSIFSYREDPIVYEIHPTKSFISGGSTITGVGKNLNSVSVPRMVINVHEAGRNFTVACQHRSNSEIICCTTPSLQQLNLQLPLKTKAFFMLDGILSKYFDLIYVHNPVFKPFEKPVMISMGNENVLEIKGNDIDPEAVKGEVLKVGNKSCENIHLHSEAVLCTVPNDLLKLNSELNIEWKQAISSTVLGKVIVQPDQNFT

[3] = biological target: c-Met/Fc Chimera (R&D Systems, catalog # 358-MT-100) (human) (UniProt P08581); test: SPR (BIAcore), c-Met-Fc captured on protein A CM5 chip, Fab as analyte, 1:1 Langmuir model
c-Met/Fc Chimera (R&D Systems, catalog # 358-MT-100) (human), sequence (P08581 25-932, stated change not applied): as the sequence (P08581 25-932) above

[4] = biological target: c-Met/Fc Chimera (R&D Systems, catalog # 358-MT-100) (human) (UniProt P08581); test: competition ELISA: displacement of biotinylated HGF from plate-coated c-Met/Fc chimera, Fab, n = 2
[5] = biological target: c-Met/Fc Chimera (R&D Systems, catalog # 358-MT-100) (human) (UniProt P08581); test: competition ELISA: displacement of biotinylated HGF from plate-coated c-Met/Fc chimera, IgG, n = 2

c-Met (endogenous, on human cell lines 184B5, HCT-116, DU-145 and NCI H441) (human), sequence (P08581 25-1390): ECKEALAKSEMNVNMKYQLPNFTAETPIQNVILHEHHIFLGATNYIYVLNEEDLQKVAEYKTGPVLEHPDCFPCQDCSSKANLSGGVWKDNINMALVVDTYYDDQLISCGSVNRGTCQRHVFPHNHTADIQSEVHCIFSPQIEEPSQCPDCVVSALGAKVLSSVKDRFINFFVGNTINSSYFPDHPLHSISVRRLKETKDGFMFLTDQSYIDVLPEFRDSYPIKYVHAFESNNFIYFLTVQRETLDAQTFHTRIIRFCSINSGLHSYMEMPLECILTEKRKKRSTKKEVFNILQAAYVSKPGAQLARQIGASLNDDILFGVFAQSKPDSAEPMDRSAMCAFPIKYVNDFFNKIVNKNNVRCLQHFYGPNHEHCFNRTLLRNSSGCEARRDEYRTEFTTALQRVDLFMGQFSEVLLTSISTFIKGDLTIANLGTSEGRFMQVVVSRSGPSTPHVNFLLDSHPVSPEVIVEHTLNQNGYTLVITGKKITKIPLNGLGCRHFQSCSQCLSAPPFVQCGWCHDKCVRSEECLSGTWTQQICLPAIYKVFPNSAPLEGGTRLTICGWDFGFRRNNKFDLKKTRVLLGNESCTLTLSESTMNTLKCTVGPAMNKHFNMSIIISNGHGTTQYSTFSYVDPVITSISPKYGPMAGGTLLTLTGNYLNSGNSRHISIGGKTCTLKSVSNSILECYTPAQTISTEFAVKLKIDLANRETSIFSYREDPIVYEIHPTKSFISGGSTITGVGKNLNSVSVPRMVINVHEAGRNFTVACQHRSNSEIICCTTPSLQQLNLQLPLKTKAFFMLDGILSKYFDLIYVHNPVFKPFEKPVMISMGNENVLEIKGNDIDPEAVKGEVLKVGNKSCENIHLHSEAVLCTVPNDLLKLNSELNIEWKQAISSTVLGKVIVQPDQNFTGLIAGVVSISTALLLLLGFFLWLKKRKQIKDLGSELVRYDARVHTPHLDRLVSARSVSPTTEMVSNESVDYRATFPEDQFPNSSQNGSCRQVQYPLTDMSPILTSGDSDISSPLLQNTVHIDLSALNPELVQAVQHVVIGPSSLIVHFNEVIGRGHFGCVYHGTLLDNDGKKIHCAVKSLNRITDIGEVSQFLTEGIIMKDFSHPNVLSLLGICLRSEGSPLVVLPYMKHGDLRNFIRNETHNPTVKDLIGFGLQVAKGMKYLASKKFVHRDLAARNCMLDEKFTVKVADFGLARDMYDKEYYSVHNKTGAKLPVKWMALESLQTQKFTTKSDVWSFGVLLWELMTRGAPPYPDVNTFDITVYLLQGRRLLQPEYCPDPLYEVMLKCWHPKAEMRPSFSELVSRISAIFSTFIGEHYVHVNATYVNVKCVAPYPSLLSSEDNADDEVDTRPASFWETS

Substance: c-Met antibody 5D5.11.6 (#HB-11895, ATCC Hybridoma), IgG
scatter assay on DU-145 cells, mean object area, agonist (alone), 100 nM IgG; the smaller the number, the more scattering (mean object area) [1]: 239 | scatter assay on DU-145 cells, mean object area, antagonist (w/30 pM HGF), 100 nM IgG; the smaller the number, the more scattering (mean object area) [1]: 241 | pKd [2]: 8.23 | koff [2]: 0.000406 s⁻¹ | kon [2]: 68800 M⁻¹ s⁻¹

Substance: c-Met antibody 5D5.11.6 (#HB-11895, ATCC Hybridoma), Fab
scatter assay on DU-145 cells, mean object area, agonist (alone), 100 nM Fab; the smaller the number, the more scattering (mean object area) [1]: 632 | scatter assay on DU-145 cells, mean object area, antagonist (w/30 pM HGF), 100 nM Fab; the smaller the number, the more scattering (mean object area) [1]: 592 | pKd [3]: 9.00 | koff [3]: 0.000129 s⁻¹ | kon [3]: 126000 M⁻¹ s⁻¹ | pIC50 [4]: 8.01

Substance: HB94 (#HB-94, ATCC Hybridoma), IgG columns of Tables 9 and 10 (antibody)
scatter assay on DU-145 cells, mean object area, agonist (alone), 100 nM, IgG column; the smaller the number, the more scattering (mean object area) [1]: 365 | scatter assay on DU-145 cells, mean object area, antagonist (w/30 pM HGF), 100 nM, IgG column; the smaller the number, the more scattering (mean object area) [1]: 199

Substance: HB-94 (#HB-94, ATCC Hybridoma) converted into a Fab fragment, Fab isotype control
scatter assay on DU-145 cells, mean object area, agonist (alone), 100 nM Fab; the smaller the number, the more scattering (mean object area) [1]: 592 | scatter assay on DU-145 cells, mean object area, antagonist (w/30 pM HGF), 100 nM Fab; the smaller the number, the more scattering (mean object area) [1]: 478

More lines, now with the values ahead:

scatter assay on DU-145 cells, mean object area, 30 pM HGF alone, IgG series; the smaller the number, the more scattering (mean object area) [1]: 324 | scatter assay on DU-145 cells, mean object area, media alone with 30 pM HGF (no antibody or Fab), Fab series; the smaller the number, the more scattering (mean object area) [1]: 352
Substance: recombinant human HGF (rhHGF, R&D Systems) (from UniProt P14210 32-728) (ligand)

scatter assay on DU-145 cells, mean object area, agonist (alone), 100 nM IgG; the smaller the number, the more scattering (mean object area) [1]: 305 | scatter assay on DU-145 cells, mean object area, antagonist (w/30 pM HGF), 100 nM IgG; the smaller the number, the more scattering (mean object area) [1]: 254 | pIC50 [5]: 9.30 | pKd [2]: 8.85 | koff [2]: 0.000289 s⁻¹ | kon [2]: 210000 M⁻¹ s⁻¹
Substance: c-Met antibody 1A3.3.13 (#HB-11894, ATCC Hybridoma), IgG

scatter assay on DU-145 cells, mean object area, agonist (alone), 100 nM Fab; the smaller the number, the more scattering (mean object area) [1]: 597 | scatter assay on DU-145 cells, mean object area, antagonist (w/30 pM HGF), 100 nM Fab; the smaller the number, the more scattering (mean object area) [1]: 400 | pKd [3]: 8.20 | koff [3]: 0.00313 s⁻¹ | kon [3]: 497000 M⁻¹ s⁻¹ | pIC50 [4]: 8.17
Substance: c-Met antibody 1A3.3.13 (#HB-11894, ATCC Hybridoma), Fab
